Experimental data as given in patent EP0614981A1.

These substances were tested against IFNγ (UniProt P01579) (assay: cell-based or functional assay).
UniProt P01579, sequence (P01579 24-166 limits assumed): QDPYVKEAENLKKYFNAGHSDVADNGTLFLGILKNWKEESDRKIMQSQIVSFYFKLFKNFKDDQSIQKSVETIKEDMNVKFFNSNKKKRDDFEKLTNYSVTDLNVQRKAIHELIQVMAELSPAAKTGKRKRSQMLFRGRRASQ

Point of comparison: “hIFNγR-HG1 (from UniProt P01857 99-330) (Fc fusion)”, IC50 nM, inhibition of IFNγ antiviral activity (CPE, WISH cells, EMC virus) 26 nM. Against it:
- soluble human IFNγ receptor (shIFNγR) — 8.3-fold higher, 216 nM
- hIFNγR-HG3 (from UniProt P01860 99-377) (Fc fusion) — 2.4-fold lower, 11 nM

Point of comparison: “hIFNγR-HG1 (from UniProt P01857 99-330) (Fc fusion)”, IC50 µg/ml, inhibition of IFNγ antiviral activity (CPE, WISH cells, EMC virus) 4.4 µg/mL. Against it:
- soluble human IFNγ receptor (shIFNγR) — 1.5-fold higher, 6.7 µg/mL
- hIFNγR-HG3 (from UniProt P01860 99-377) (Fc fusion) — 2.2-fold lower, 2 µg/mL
